Reference: a protein production outcome set (Wang et al. 2014)

Assay: label from the status in PepcDB records

MFKNKLAVLFTCLSVFSFSAQSGSFDTVTLGSKGGIQDGNLTAFLIKSEADSNFVMLDAGSVVNGLIVSEQKGAFKDITVPDSSPYTKVGYLLKDKIKGYFISHAHLDHVAGLIISSPDDSKKPIYGLAATNKDLMKNYFNWSAWPNFGNKGEGFKLNKYNYVDLQPGVWSPIAETTMSVMSLPLSHSGGQSTVFILKDSEGDVFAYFGDTGPDEVEKSSAMKTAWSALAPFVKQGKLKGIIIEVSFTNETPDKSLFGHLTPNWLVKELSVLEDMNGKGSLNDLNVAISHIKYSLKNSEDPKVIIKKQLAEANDLGVNFIFPEQGDSLQF
protein production: failed

MFKVLAEAFASARLRLGAILFSPQSLAFLPAFCLGLYWYGGETALMITALVFPVFFLVARAKLAETVTTSRQDSVLGVMQPDGFQDIVAARFREARAGGLISTVFQIEIDDHTSLVERHGQRAAEVISTTSADRIAAVLRDRDAVTHLDTFKYAVCLEPVRQMDLELCIQLAGRIQAALEEPIALDATAVCITSSVGFCQQTKVLSRSGEAWLAAAGHALREAHLNGPGAIRAYSEKMQQKSEIRAELREEVAQALEKGQIKPWFQPQISTDTGLVTGFEALARWNHPKRGMVPPGAFLTAIEQAGMLEKLAEVMIFHAFTALKAWDSAGVCVPQVGVNFAGPELSNPKLVDKIIWELDRFDLAPERLAVEVLETVVANSPDDTITRNINGLSKLGCRIDLDDFGTGHASISSIRRFSVSRIKIDRSFVIKADRDPEQQRMISAILTMAERLEVETLAEGVESVGEHALLAQLGCDHVQGFGIGKPMPFDQTLDWIASHNAKLQATPQILPNKLRLEHHHHHH
protein production: not failed

MFKVTFAFENGSEVEAFANAGDNLLEVARGANVAIDAPCSGNGACGKCRVQLKGGELDSKKTLHISDEEFEKGWRLACMSKICADVEVLVPDIASAYKSRMKVA
protein production: failed

MFLGAAMAQVSLCMIVRDEAELLPRCLASVKDQVDELIVLDTGSRDRTPAIATEAGAKLLHTDWADDFSAARNQAIAAATGDWILVLDADEELILEAWTELRSQLDQPEALAFTVLREETQAGQVPYSRLSRLFRNRPDIRFQRPYHELVDDSLLALQQQEPNWRITAWPTPVIRHYGYGRDRLQQRGTAERMRQSLETWLADHPEDAYLCSKLGGLLVQEGDLKAAQRWLKQGLKQGRPEPAVRYELLYHLALLERRQGDLDAAIDRYQAALQEPVDAIHKLGAWVNLSHLYRDRGQLGLAYDAARQAVAAAPQATVALTALGLAARAIGNYPEAIAAYQQALQLDPNDPSLYQNLGAVLFQVGQLEASYAAFRQAIAGYEQQGSPEAQRLELRLQAMGIRL
protein production: failed

MFLKLFSLFLIIPLVEIYLLIKIGGIIGAFNTVLVILITASLGAYLTKSQGFRVFHQIQDATRQGYMPGNELLHGLFVLIGGFALLTPGFLTDAIGFSMLIPQIREIYVGIAKGIIRKKIEQGNFQMRVYTDFR
protein production: failed

MFLKRIELQREKVLSFQEYPFSIPAIKHFQRLELKSRVTFFVGENGSGKSTLLEAIADKCEFNTAGGGRNNYYEVDASESALGDYIRLSWLPKVSNGFFLRAESFYHFASHVDEVDARHAYGGRSLHHQSHGEAFLSLFANRFNRKGIYLLDEPEAALSPRRQLSFLAILHDLVSSGDSQFIIATHSPILLGYPHATILSFDHGTIEETTYEQTEHYQLTRYFLENRERMLRELLGELEHHHHHH
protein production: failed

MFLLQQLDHTVKKMKSQLANFFTIINLSCGVFAILFTLQGELRVSLLFITIAAVFDRLDGAAARKFDCASDFGKQLDSLTDIISFGVAPALMIYHAILFDFGYAGALFTVFYIACGAIRLARFNITENHNSFIGLPITAAGCILTLLYLAVGYWPDYTFMFAILILSFLMVSTIRVRKM
protein production: failed

MFLRIANKILKRLAGVQVIPVNKKRLSVLDNKHLHIASNSILLEGTSLDFRQEISSSDTYVSIGGYCLIKAIFTFETTTGLITIGNNVHIGNAHFICRSAITIHDDVTMAWGITLYDHNSHSIHWEERKDDNKTCYEDFVQHHGNNIVNKNWINVLSRPIVIESKAWIGFNVTILKGVTIGEGAVIGACSVVTKDVPAWTVVAGNPAAVVKHLQKPE
protein production: failed

MFLVNNIRCSNMAEFPYTTVPGKIKPFFQKIQEAGLPSKVTQKWINSIGFTSSNDPSIIPLLKKLGFIDRSGVPTELWARYRDKDLAPKVMAEAIKNAYKELFETYPDAYRKDKEALRNFFASQTGKAENTIEKMIQTFKALCELADFESNSEEYPHNEVVPSREGLTTLMEKQTPKGLTINVNIQLQLPATTDEEVYDKLFRSLKRNLLSE
protein production: not failed

MFMFRNCAVLLVIGSICCFIYGLFRLHVEVEPNACRMTYMFGEPMFAKVGVRDGDQYPNYALYYYYEGLRQPLDPLKRRMTGAPVIFVPGNAGSYKQVRSLASVALRKAMSNDAGIHLDYYTIDYDEELSALYGGYLHRQQSYLKLCIRTILSIYEGRTEQPSIVLIGHSMGGKLAQSVLVDPAIGQHINTIISISTPLDQPVLNLDTQLEEFYDQTDAVLSKLRTATVPTMTTNVCDSLHQRPPSVQRMASQDSSARLDNVLLISTGGGNRDLLVRPGLTSSRFNDLHAMTSAIPKVSLSCDHLSAVWCLQFMQAINRFLFSVAYVREDRSSIAFGTNKQRNLQTALSTFVKPRRRQQNTVRFGAAGNWHEERRLVINKYFTNGLKGTFFDLIGLQRQERYRKAAIEALNVDDEDWLFGCSAEDNNKTGQLYCEKATSLMHLVQWLPNEDREPRSIALLDLHNLRKTYVHWTHLLVRLPPSAKRIGYNLDIYDPKERVTDIKMPRWYTMAKLPLINETLQGTLHHRVRISEMVDPYQSIRVIVEPLQCINPEYRVTARICVPWAAGFERFQTLKSFDQKPQLYVNVPTLVPRHYNTTLNPVTLELYLDPTCRYRISYEYSYSSALSRLVLEFYGWLPAHLVCVLLIVLRKQVETFYDVGTFRSLRPYVGYLQYTSLYIVTACRLLKKLIISSRVFPEPEPLDYSINVSIVIHCAAIALSLLATLGTWLALTLYGNAFYRLALRITRLSQATSNVMISIMTHLPITYGILTIATAMGTCSGVGLLLAFVFYFLMLSNAYKDYLEDFLWQKAANLVRGKPSAVTEQEDATEEQNEEQNALKQNDEQKQQQQEEEEPEACVGLQNFSFHVTLLLMLFVQLLLNAPSSLAWLRSRRHGINLPDPSLYPSIVVLASLSLLLQLRAPQKCQGYWMLSIAFYILAGVVLLYCQAAIYRLTYVIAGAFALLSAHQSLWILWGRVSRV
protein production: failed

MFMGKLPHQADLIGALIEAAGANGIRAGAIQVIGALQGAKLGFYDQWSKSYRELPFAKPLEIVSGLGNISLRDGRPFVHLHLSISDEEGKVFGGHALEGCTIFAAEYAIMPLPGSAPVRVFDETTGLFLWEREQYPASGQKGLSPELERALLNPLEHHHHHH
protein production: not failed

MFMIPAWLWIGLIAFALAFVCNRLSPRDLRWFNRLRRPSWLTFEWAIPFIWIAIFIAGAISATLAWNATADPGHRWGLMVGYLLLELTVMAYTPVMCKLRSLRVGSIIGATGFFVGLALVIAVSQVSTTAFGFLVPFLLWSPIGTYVTWAMIPLNPGEI
protein production: failed

MFMKKWIGIDLGTTNTVASYFDVSSKIILNERGERITPSIVSFSDKDVLVGSAAKNQILVNPQKTFYNFKTNIGSNNFYKVDGEFYKAEYISAHLLASVKRNAEKFLDEEIENAVITVPAYFSEIQRRCVVEAANFAGLNCKAILNEPTAAAIAYAFERQIDGIFLIYDLGGGTFDVTLMEKQGDTYTVLSVKGQSRLGGNDFNKIIEKYVLDSFKNKYPDFNLEDIFLLEQLRERIEEGKKNLSVMEEVDITLLFLDGKHLNYNLKRDEFNSMISEYIDKTIQLSMECIADSGVDISSVSKIILSGGSTRIPLIEKVLKESFPSATILDALNQDEVVAIGAGIHAFSLSRNDSVIKFKDVTPYSLGLEIKDNEFFTLIKRNTALPISRSKLFTTTNDYQDEIEIHILQGEYKKASLNYSIGRFSFGNIQKALKGIPKIEVLFTLNESGILSVNAKDLETNSSNFIEIKITSSSDNVAKESLSNTFTSIID
protein production: failed

MFNQLVKVIPNLFTIGNLLCGVFSITLNMSEYLGAASILIFFSAVLDFLDGRIARKLKVNSEFGVELDSLADIVSFGVAPALLFHTIATPSILTSLAFILFPTMGALRLAKFSIKPTIGYFKGLPIPAAGLSLAGMALFSYSNAWITLILALLMVSPIRFKKF
protein production: not failed

MFPFENQRLPISALIHKKNHSRLQPHPLFEEQPMKILLIGANGTIGSAVARELEQRHEVVRIGRTSGDFQVDISDSQSIRALFEKTGRFDALVCAAGNVTFAPLGEMTAEHFSLGLEDKLMGQVNLLLIGREYANDGASFTFTTGVLSHDPIRSGASAALVNGAIDSFVRAAAIELPRGLRVNSISPNVLLEAMGSYAPYFRGFKPVPAADVALAYAKSVEGLQTGQTYRVG
protein production: failed

MFPQRSSELYRTPVTHQPPPALELAGNLEYPNLNIADLNARLENLSPRLHDCWDSIAINDHNHLALATNRREGRQWWGMLFGYGRDQMHHMSVDSANFKLQAEHTVNIVRYAEDDFLLVALGDTRLQAWSTYSKVRDSQSPYCLFLVGESSAHPTPISQLSVFKADPRTAVSGSADSTLNVWDLSGADMVSTYRSRSSHTDKLTGLATPAASVDKFVTCDRGGCARLWDVRAAAPSSTCLYADASHVLSFTSAAWAAASELQGDNHIYLGDYDGKVHTLDIRVPRKLAETREYFDKGHVAQLLINGPHLAAMSNLPASVKVANVQAGHEFIYTHQDTHSRLTDAVWTDDSTLITIGHGRKMVTHAIK
protein production: failed

MFPSRRKAAQLPWEDGRSGLLSGGLPRKCSVFHLFVACLSLGFFSLLWLQLSCSGDVARAVRGQGQETSGPPRACPPEPPPEHWEEDASWGPHRLAVLVPFRERFEELLVFVPHMRRFLSRKKIRHHIYVLNQVDHFRFNRAALINVGFLESSNSTDYIAMHDVDLLPLNEELDYGFPEAGPFHVASPELHPLYHYKTYVGGILLLSKQHYRLCNGMSNRFWGWGREDDEFYRRIKGAGLQLFRPSGITTGYKTFRHLHDPAWRKRDQKRIAAQKQEQFKVDREGGLNTVKYHVASRTALSVGGAPCTVLNIMLDCDKTATPWCTFS
protein production: failed

MFQIIGIVLLFAMVFGSYIMAGGKMDVIIHAAPHELMAIGGAGVAAFLIGNSVTVIKATLGGFGTIFKGPKWKAQDYRDLLSLLFLLTKTMKSKGVIALEAHIEKPHESTIFSRYPKIAHDHFAVDFICDTLRMMTMNLEDPHQVEDAMEKQLEKHHHEAHGAAHALTQLSDGLPALGIVAAVLGVIKTMGSITEPPAVLGTMIGGALVGTFMGVFMAYGLVGPMATRLGGVLDEDHNFYKIIQAVLVAHLHGNAAQISVEIGRGNVPSAYQPSFAELEEALSQMPNE
protein production: failed

MFQKIAKECLAGFTVAIVALPLAIAFGIAATGTSEGALVGLYGAIFAGLFAALFGGTPGQVTGPTGPITVIATGVIATHGLEASFIVFMMAGLFQILFGVCKLGSYVRYIPYPVVSGFMNGIALIIILGEMKHVQNSFLLVVLTIIVMIVSGKWIKAIPSSLVALVGVTAMLPLFSSALEGLTVKLPVIGNLSLNKVIEKIGTIPEAMPTLHIPSLSGTGIAELILPALSIALLGSIDSLLTSVVMDNVTGTRHKSNKELVGQGIGNVMSGLFGGLAGAGATVRSIVNIRSGGKTALSASMHSVILFIFIMGLGSVVQYIPLAVLSGILILTGIGMFDWESMKKMHVAPKGDVVVMLVTMIVTVKFDLMIAVAFGIILAFIIYMVKCKERKASIVKEKEAIYKIKGPLSFLTVDRVFYALQDVKSPVVLRMKDTRYMDVSGAMALLNFIEQSGKSGLSVTLEQVPAHIEKILVTMASSEQKDKLLFTEADVMQGNALV
protein production: failed
